Measured values as given in patent US7183387 (Genentech, dated 2007).

Tests used:
[1] = molecular target: T1, human FcγRIIB α subunit extracellular domain-His6-GST fusion (human, UniProt P31994 43-217); experiment: hexamer ELISA
T1 construct: extracellular domain; also called CD32; not shown: glutathione S transferase (GST)
T1 sequence: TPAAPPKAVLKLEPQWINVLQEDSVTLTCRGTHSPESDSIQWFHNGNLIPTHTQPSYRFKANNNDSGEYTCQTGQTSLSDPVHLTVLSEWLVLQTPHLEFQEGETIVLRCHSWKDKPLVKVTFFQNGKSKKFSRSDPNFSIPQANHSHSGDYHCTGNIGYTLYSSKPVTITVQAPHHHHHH

[2] = molecular target: T2, human FcγRIIA-Arg131 α subunit extracellular domain-His6-GST fusion (human, UniProt P12318 34-217); experiment: hexamer ELISA
T2 construct: extracellular domain; also called FcγRIIA-R131; not shown: glutathione S transferase (GST)
T2 sequence: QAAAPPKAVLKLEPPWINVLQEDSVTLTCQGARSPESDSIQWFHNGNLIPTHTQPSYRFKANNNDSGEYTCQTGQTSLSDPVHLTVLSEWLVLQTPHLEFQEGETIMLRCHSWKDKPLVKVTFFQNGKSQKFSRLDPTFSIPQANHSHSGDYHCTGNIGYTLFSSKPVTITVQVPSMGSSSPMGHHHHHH

[3] = molecular target: T3, human FcγRIIIA-Phe158 α subunit extracellular domain-His6-GST fusion (human, UniProt P08637 17-208); experiment: hexamer ELISA
T3 construct: extracellular domain; also called FcγRIIIA-F158; CD16; not shown: glutathione S transferase (GST)

[4] = molecular target: T4, human FcγRIA α subunit extracellular domain-His6-GST fusion (human, UniProt P12314 16-292); experiment: FcγRI ELISA and THP-1 cells, averaged
T4 construct: extracellular domain; also called GST-FcγRIA; CD64; not shown: glutathione S transferase (GST)

[5] = molecular target: T5, human neonatal Fc receptor (FcRn), biotinylated (human, UniProt P55899 24-297; P61769 21-119, biotinylated (biotin-X-NHS)); experiment: FcRn ELISA, pH 6.0;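 also: Streptavidin-captured FcRn plates, IgG variants titrated 2 h at pH 6.0, peroxidase anti-human IgG read at 450 nm, variant over standard concentration at the standard curve mid-point absorbance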
T5 construct: captured on streptavidin plates
Experimental: FcRn Binding ELISA: For measuring FcRn binding activity of IgG variants, ELISA plates were coated with 2 µg/ml streptavidin (Zymed, South San Francisco) in 50 mM carbonate buffer, pH 9.6, at 4° C. overnight and blocked with PBS-0.5% BSA, pH 7.2 at room temperature for one hour. Biotinylated FcRn (prepared using biotin-X-NHS from Research Organics, Cleveland, Ohio and used at 1–2 µg/ml) in PBS-0.5% BSA, 0.05% polysorbate 20, pH 7.2, was added to the plate and incubated for one hour. Two fold serial dilutions of IgG standard (1.6–100 ng/ml) or variants in PBS-0.5% BSA, 0.05% polysorbate 20, pH 6.0, were added to the plate and incubated for two hours. Bound IgG was detected using peroxidase labeled goat F(ab')_2 anti-human IgG F(ab')_2 in the above pH 6.0 buffer (Jackson ImmunoResearch, West Grove, Pa.) followed by 3,3',5,5'-tetramethyl benzidine (Kirgaard & Perry Laboratories) as the substrate. Plates were washed between steps with PBS-0.05% TWEEN 20® at either pH 7.2 or 6.0. Absorbance was read at 450 nm on a Vmax plate reader (Molecular Devices, Menlo Park, Calif.). Titration curves were fit with a four-parameter nonlinear regression curve-fitting program (KaleidaGraph, Synergy software, Reading, Pa.). Concentrations of IgG variants corresponding to the mid-point absorbance of the titration curve of the standard were calculated and then divided by the concentration of the standard corresponding to the mid-point absorbance of the standard titration curve.

[6] = molecular target: T6, human FcγRIIA-R131 α subunit extracellular domain-His6-GST fusion (human, UniProt P12318 34-217); experiment: ELISA, IgG complex, receptor coated
T6 construct: ECD-6His-GST fusion made in 293 cells; also called FcγRIIA-Arg131; not shown: glutathione S transferase (GST)
T6 sequence: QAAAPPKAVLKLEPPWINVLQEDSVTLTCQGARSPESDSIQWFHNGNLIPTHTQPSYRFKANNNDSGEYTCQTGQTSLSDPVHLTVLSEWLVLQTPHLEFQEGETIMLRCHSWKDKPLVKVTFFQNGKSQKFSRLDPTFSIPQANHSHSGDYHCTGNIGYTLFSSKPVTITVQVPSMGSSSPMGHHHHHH

[7] = molecular target: T7, human FcγRIIIA-F158 α subunit extracellular domain-His6-GST fusion (human, UniProt P08637 17-208); experiment: ELISA, IgG complex, receptor coated
T7 construct: ECD-6His-GST fusion made in 293 cells; also called FcγRIIIA-Phe158; not shown: glutathione S transferase (GST)

[8] = molecular target: T8, human FcγRIIIA-V158 α subunit extracellular domain-His6-GST fusion (human, UniProt P08637 17-208); experiment: ELISA, IgG monomer, receptor coated
T8 construct: ECD-6His-GST fusion made in 293 cells; also called FcγRIIIA-Val158; not shown: glutathione S transferase (GST)
T8 sequence (P08637 other isoform, or with tags, fused parts or gaps, form in doubt): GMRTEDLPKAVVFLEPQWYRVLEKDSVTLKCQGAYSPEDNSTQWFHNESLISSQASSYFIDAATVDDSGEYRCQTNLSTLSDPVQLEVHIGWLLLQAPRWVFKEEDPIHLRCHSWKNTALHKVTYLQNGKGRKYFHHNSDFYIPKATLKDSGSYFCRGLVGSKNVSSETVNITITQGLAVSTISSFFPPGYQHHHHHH

T3 sequence (P08637 other isoform, or with tags, fused parts or gaps): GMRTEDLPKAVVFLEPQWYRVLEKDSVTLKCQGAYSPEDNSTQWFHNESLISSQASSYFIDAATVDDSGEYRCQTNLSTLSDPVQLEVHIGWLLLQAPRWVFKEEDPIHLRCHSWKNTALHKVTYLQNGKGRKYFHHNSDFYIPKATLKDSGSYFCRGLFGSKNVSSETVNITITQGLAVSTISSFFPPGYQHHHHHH
T7 sequence (P08637 other isoform, or with tags, fused parts or gaps, form in doubt): as the sequence (P08637 other isoform, or with tags, fused parts or gaps) above
T4 sequence (P12314 other isoform, or with tags, fused parts or gaps): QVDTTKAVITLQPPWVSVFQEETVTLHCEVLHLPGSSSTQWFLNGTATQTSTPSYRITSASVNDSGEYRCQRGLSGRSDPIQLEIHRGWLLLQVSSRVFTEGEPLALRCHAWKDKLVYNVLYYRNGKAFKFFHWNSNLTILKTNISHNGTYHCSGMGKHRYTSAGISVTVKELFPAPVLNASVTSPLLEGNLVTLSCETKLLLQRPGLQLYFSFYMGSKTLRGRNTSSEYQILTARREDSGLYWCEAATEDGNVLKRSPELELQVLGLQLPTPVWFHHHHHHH
T5 sequence (P55899 24-297 limits assumed, chain 1 of 2): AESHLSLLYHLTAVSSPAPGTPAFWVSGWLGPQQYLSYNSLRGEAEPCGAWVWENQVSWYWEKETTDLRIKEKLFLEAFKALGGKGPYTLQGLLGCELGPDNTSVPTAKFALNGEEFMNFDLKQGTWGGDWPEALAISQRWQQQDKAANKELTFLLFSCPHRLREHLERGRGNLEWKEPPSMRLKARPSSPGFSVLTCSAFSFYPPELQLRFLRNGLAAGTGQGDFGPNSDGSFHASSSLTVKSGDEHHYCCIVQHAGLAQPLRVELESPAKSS
T5 sequence (P61769 21-119 limits assumed, chain 2 of 2): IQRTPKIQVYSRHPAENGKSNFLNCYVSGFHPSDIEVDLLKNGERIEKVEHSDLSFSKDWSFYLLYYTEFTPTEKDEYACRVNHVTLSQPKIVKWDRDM

B1: anti-IgE E27 IgG1 Ser415Ala (antibody)
heavy: not shown
light: DIQLTQSPSSLSASVGDRVTITCRASKPVDGEGDSYLNWYQQKPGKAPKLLIYAASYLESGVPSRFSGSGSGTDFTLTISSLQPEDFATYYCQQSHEDPYTFGQGTKVEIKRTVAAPSVFIFPPSDEQLKSGTASVVCLLNNFYPREAKVQWKVDNALQSGNSQESVTEQDSKDSTYSLSSTLTLSKADYEKHKVYACEVTHQGLSSPVTKSFNRGEC
[1]
  ratio to native IgG1: 0.88 ratio
[2]
  ratio to native IgG1: 0.9 ratio
[3]
  ratio to native IgG1: 0.86 ratio
[4]
  ratio to native IgG1: 1.04 ratio
[5]
  ratio to native IgG1: 0.44 ratio

B2: anti-IgE E27 IgG1 variant E283(300)D (antibody)
heavy: not shown
light: DIQLTQSPSSLSASVGDRVTITCRASKPVDGEGDSYLNWYQQKPGKAPKLLIYAASYLESGVPSRFSGSGSGTDFTLTISSLQPEDFATYYCQQSHEDPYTFGQGTKVEIKRTVAAPSVFIFPPSDEQLKSGTASVVCLLNNFYPREAKVQWKVDNALQSGNSQESVTEQDSKDSTYSLSSTLTLSKADYEKHKVYACEVTHQGLSSPVTKSFNRGEC
notes: Fc variant of E27
[6]
  ratio of binding, variant/native IgG1 (mean): 1.14 ratio
[7]
  ratio of binding, variant/native IgG1 (mean): 0.95 ratio
[8]
  ratio of binding, variant/native IgG1 (mean): 0.67 ratio

B3: anti-IgE E27 IgG1 variant E283(300)N (antibody)
heavy: not shown
light: DIQLTQSPSSLSASVGDRVTITCRASKPVDGEGDSYLNWYQQKPGKAPKLLIYAASYLESGVPSRFSGSGSGTDFTLTISSLQPEDFATYYCQQSHEDPYTFGQGTKVEIKRTVAAPSVFIFPPSDEQLKSGTASVVCLLNNFYPREAKVQWKVDNALQSGNSQESVTEQDSKDSTYSLSSTLTLSKADYEKHKVYACEVTHQGLSSPVTKSFNRGEC
notes: Fc variant of E27; also called IG2 228
[6]
  ratio of binding, variant/native IgG1 (mean): 1.18 ratio
[7]
  ratio of binding, variant/native IgG1 (mean): 0.94 ratio
[8]
  ratio of binding, variant/native IgG1 (mean): 0.63 ratio

B4: anti-IgE E27 IgG1 Thr256Ala (antibody)
heavy: not shown
light: DIQLTQSPSSLSASVGDRVTITCRASKPVDGEGDSYLNWYQQKPGKAPKLLIYAASYLESGVPSRFSGSGSGTDFTLTISSLQPEDFATYYCQQSHEDPYTFGQGTKVEIKRTVAAPSVFIFPPSDEQLKSGTASVVCLLNNFYPREAKVQWKVDNALQSGNSQESVTEQDSKDSTYSLSSTLTLSKADYEKHKVYACEVTHQGLSSPVTKSFNRGEC
[1]
  ratio to native IgG1: 2.06 ratio
[2]
  ratio to native IgG1: 1.41 ratio
[3]
  ratio to native IgG1: 1.32 ratio
[4]
  ratio to native IgG1: 1.01 ratio
[5]
  ratio to native IgG1: 1.91 ratio

B5: anti-IgE E27 IgG1 Val305Ala (antibody)
heavy: not shown
light: DIQLTQSPSSLSASVGDRVTITCRASKPVDGEGDSYLNWYQQKPGKAPKLLIYAASYLESGVPSRFSGSGSGTDFTLTISSLQPEDFATYYCQQSHEDPYTFGQGTKVEIKRTVAAPSVFIFPPSDEQLKSGTASVVCLLNNFYPREAKVQWKVDNALQSGNSQESVTEQDSKDSTYSLSSTLTLSKADYEKHKVYACEVTHQGLSSPVTKSFNRGEC
[1]
  ratio to native IgG1: 1.23 ratio
[2]
  ratio to native IgG1: 1.12 ratio
[3]
  ratio to native IgG1: 0.84 ratio
[4]
  ratio to native IgG1: 1.04 ratio
[5]
  ratio to native IgG1: 1.46 ratio

B6: anti-IgE E27 IgG1 variant E283(300)S (antibody)
heavy: not shown
light: DIQLTQSPSSLSASVGDRVTITCRASKPVDGEGDSYLNWYQQKPGKAPKLLIYAASYLESGVPSRFSGSGSGTDFTLTISSLQPEDFATYYCQQSHEDPYTFGQGTKVEIKRTVAAPSVFIFPPSDEQLKSGTASVVCLLNNFYPREAKVQWKVDNALQSGNSQESVTEQDSKDSTYSLSSTLTLSKADYEKHKVYACEVTHQGLSSPVTKSFNRGEC
notes: Fc variant of E27; also called IG2 227
[6]
  ratio of binding, variant/native IgG1 (mean): 1.03 ratio
[7]
  ratio of binding, variant/native IgG1 (mean): 0.85 ratio
[8]
  ratio of binding, variant/native IgG1 (mean): 0.83 ratio

B7: anti-IgE E27 IgG1 variant E283(300)Q (antibody)
heavy: not shown
light: DIQLTQSPSSLSASVGDRVTITCRASKPVDGEGDSYLNWYQQKPGKAPKLLIYAASYLESGVPSRFSGSGSGTDFTLTISSLQPEDFATYYCQQSHEDPYTFGQGTKVEIKRTVAAPSVFIFPPSDEQLKSGTASVVCLLNNFYPREAKVQWKVDNALQSGNSQESVTEQDSKDSTYSLSSTLTLSKADYEKHKVYACEVTHQGLSSPVTKSFNRGEC
notes: Fc variant of E27; also called IG2 226
[6]
  ratio of binding, variant/native IgG1 (mean): 1.12 ratio
[7]
  ratio of binding, variant/native IgG1 (mean): 1.19 ratio
[8]
  ratio of binding, variant/native IgG1 (mean): 0.89 ratio

B8: anti-IgE E27 IgG1 Thr307Ala (antibody)
heavy: not shown
light: DIQLTQSPSSLSASVGDRVTITCRASKPVDGEGDSYLNWYQQKPGKAPKLLIYAASYLESGVPSRFSGSGSGTDFTLTISSLQPEDFATYYCQQSHEDPYTFGQGTKVEIKRTVAAPSVFIFPPSDEQLKSGTASVVCLLNNFYPREAKVQWKVDNALQSGNSQESVTEQDSKDSTYSLSSTLTLSKADYEKHKVYACEVTHQGLSSPVTKSFNRGEC
[1]
  ratio to native IgG1: 1.27 ratio
[2]
  ratio to native IgG1: 1.07 ratio
[3]
  ratio to native IgG1: 1.09 ratio
[4]
  ratio to native IgG1: 0.99 ratio
[5]
  ratio to native IgG1: 1.81 ratio

B9: anti-IgE E27 IgG1 variant E294(311)D (antibody)
heavy: not shown
light: DIQLTQSPSSLSASVGDRVTITCRASKPVDGEGDSYLNWYQQKPGKAPKLLIYAASYLESGVPSRFSGSGSGTDFTLTISSLQPEDFATYYCQQSHEDPYTFGQGTKVEIKRTVAAPSVFIFPPSDEQLKSGTASVVCLLNNFYPREAKVQWKVDNALQSGNSQESVTEQDSKDSTYSLSSTLTLSKADYEKHKVYACEVTHQGLSSPVTKSFNRGEC
notes: Fc variant of E27; also called IG2 174
[6]
  ratio of binding, variant/native IgG1 (mean): 0.37 ratio
[7]
  ratio of binding, variant/native IgG1 (mean): 0.14 ratio
[8]
  ratio of binding, variant/native IgG1 (mean): 0.26 ratio

B10: anti-IgE E27 IgG1 Val303Ala (antibody)
heavy: not shown
light: DIQLTQSPSSLSASVGDRVTITCRASKPVDGEGDSYLNWYQQKPGKAPKLLIYAASYLESGVPSRFSGSGSGTDFTLTISSLQPEDFATYYCQQSHEDPYTFGQGTKVEIKRTVAAPSVFIFPPSDEQLKSGTASVVCLLNNFYPREAKVQWKVDNALQSGNSQESVTEQDSKDSTYSLSSTLTLSKADYEKHKVYACEVTHQGLSSPVTKSFNRGEC
[1]
  ratio to native IgG1: 0.65 ratio
[2]
  ratio to native IgG1: 0.86 ratio
[3]
  ratio to native IgG1: 0.33 ratio
[4]
  ratio to native IgG1: 0.91 ratio
[5]
  ratio to native IgG1: 1.26 ratio

B11: anti-IgE E27 IgG1 variant E283(300)A (antibody)
heavy: not shown
light: DIQLTQSPSSLSASVGDRVTITCRASKPVDGEGDSYLNWYQQKPGKAPKLLIYAASYLESGVPSRFSGSGSGTDFTLTISSLQPEDFATYYCQQSHEDPYTFGQGTKVEIKRTVAAPSVFIFPPSDEQLKSGTASVVCLLNNFYPREAKVQWKVDNALQSGNSQESVTEQDSKDSTYSLSSTLTLSKADYEKHKVYACEVTHQGLSSPVTKSFNRGEC
notes: Fc variant of E27; also called IG2 25
[6]
  ratio of binding, variant/native IgG1 (mean): 1.24 ratio
[7]
  ratio of binding, variant/native IgG1 (mean): 1.01 ratio
[8]
  ratio of binding, variant/native IgG1 (mean): 0.78 ratio

B12: anti-IgE E27 IgG1 variant E294(311)A (antibody)
heavy: not shown
light: DIQLTQSPSSLSASVGDRVTITCRASKPVDGEGDSYLNWYQQKPGKAPKLLIYAASYLESGVPSRFSGSGSGTDFTLTISSLQPEDFATYYCQQSHEDPYTFGQGTKVEIKRTVAAPSVFIFPPSDEQLKSGTASVVCLLNNFYPREAKVQWKVDNALQSGNSQESVTEQDSKDSTYSLSSTLTLSKADYEKHKVYACEVTHQGLSSPVTKSFNRGEC
notes: Fc variant of E27; also called IG2 33
[6]
  ratio of binding, variant/native IgG1 (mean): 0.87 ratio
[7]
  ratio of binding, variant/native IgG1 (mean): 0.66 ratio
[8]
  ratio of binding, variant/native IgG1 (mean): 0.68 ratio

B13: anti-IgE E27 IgG1 variant E294(311)Q (antibody)
heavy: not shown
light: DIQLTQSPSSLSASVGDRVTITCRASKPVDGEGDSYLNWYQQKPGKAPKLLIYAASYLESGVPSRFSGSGSGTDFTLTISSLQPEDFATYYCQQSHEDPYTFGQGTKVEIKRTVAAPSVFIFPPSDEQLKSGTASVVCLLNNFYPREAKVQWKVDNALQSGNSQESVTEQDSKDSTYSLSSTLTLSKADYEKHKVYACEVTHQGLSSPVTKSFNRGEC
notes: Fc variant of E27; also called IG2 173
[6]
  ratio of binding, variant/native IgG1 (mean): 1.01 ratio
[7]
  ratio of binding, variant/native IgG1 (mean): 0.84 ratio
[8]
  ratio of binding, variant/native IgG1 (mean): 0.79 ratio

B14: anti-IgE E27 IgG1 Ser424Ala (antibody)
heavy: not shown
light: DIQLTQSPSSLSASVGDRVTITCRASKPVDGEGDSYLNWYQQKPGKAPKLLIYAASYLESGVPSRFSGSGSGTDFTLTISSLQPEDFATYYCQQSHEDPYTFGQGTKVEIKRTVAAPSVFIFPPSDEQLKSGTASVVCLLNNFYPREAKVQWKVDNALQSGNSQESVTEQDSKDSTYSLSSTLTLSKADYEKHKVYACEVTHQGLSSPVTKSFNRGEC
[1]
  ratio to native IgG1: 1.02 ratio
[2]
  ratio to native IgG1: 1.04 ratio
[3]
  ratio to native IgG1: 0.89 ratio
[4]
  ratio to native IgG1: 0.98 ratio
[5]
  ratio to native IgG1: 1.41 ratio
